In this data set the target is glucocorticoid receptor (GR) (UniProt P04150 1-777). The data set is described as follows: EMSA. A general note: Mobility shift assays separate free from complexed probe on a gel.
Chain of glucocorticoid receptor (GR) (P04150 whole entry): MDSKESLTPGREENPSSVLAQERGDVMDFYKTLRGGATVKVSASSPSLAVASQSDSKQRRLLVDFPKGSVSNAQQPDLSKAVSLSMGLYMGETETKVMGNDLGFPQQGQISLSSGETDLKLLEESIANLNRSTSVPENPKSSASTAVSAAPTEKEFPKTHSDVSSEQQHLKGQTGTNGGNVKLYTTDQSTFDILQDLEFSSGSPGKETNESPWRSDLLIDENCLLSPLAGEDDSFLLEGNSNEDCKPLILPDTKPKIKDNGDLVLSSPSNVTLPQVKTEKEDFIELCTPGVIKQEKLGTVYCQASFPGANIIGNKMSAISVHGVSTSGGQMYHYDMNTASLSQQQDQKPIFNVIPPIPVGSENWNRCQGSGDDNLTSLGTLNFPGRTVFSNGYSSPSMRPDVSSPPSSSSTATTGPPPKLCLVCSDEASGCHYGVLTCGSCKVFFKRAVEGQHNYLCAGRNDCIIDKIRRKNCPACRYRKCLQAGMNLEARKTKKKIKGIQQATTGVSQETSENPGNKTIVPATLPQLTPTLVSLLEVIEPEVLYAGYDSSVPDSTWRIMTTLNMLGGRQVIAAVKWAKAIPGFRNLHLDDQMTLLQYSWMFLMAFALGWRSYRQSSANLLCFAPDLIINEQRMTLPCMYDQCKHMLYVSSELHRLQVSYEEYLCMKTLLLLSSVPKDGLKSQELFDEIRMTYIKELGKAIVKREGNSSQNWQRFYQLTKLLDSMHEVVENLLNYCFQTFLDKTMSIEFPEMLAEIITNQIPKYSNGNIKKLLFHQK

B1: GRE (dsDNA)
DNA 1: CTAGGCTGTACAGGATGTTCTGCCTAG
DNA 2: CTAGGCAGAACATCCTGTACAGCCTAG
Regarding B1, the binding result is listed as “binds”.

B2: AAV2 D-sequence (D) (dsDNA)
DNA 1: CTCCATCACTAGGGGTTCCT
DNA 2: AGGAACCCCTAGTGATGGAG
With B2, the binding result is on record as “binds”.
